Reference: patent US20140335107A1 (published 2014)
Substitutions are numbered along the chain they refer to. Numbers in names are those of the source.

Key:
[1] = biological target: T1, extracellular domain of human CD79b (huCD79becd) (human, UniProt P40259 29-159); assay: phage selection, Fab on phage
T1 construct: expressed in CHO cells
T1 sequence: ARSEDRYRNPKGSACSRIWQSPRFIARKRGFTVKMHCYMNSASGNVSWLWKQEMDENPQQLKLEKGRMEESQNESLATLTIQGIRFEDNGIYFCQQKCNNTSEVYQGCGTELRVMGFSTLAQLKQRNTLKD
Procedure: For phage selection, the extracellular domain of CD79b (huCD79becd) (2 μg/ml) was immobilized in PBS on MaxiSorp microtiter plates (Nunc) overnight at 4° C. Plates were blocked for at least 1 h using Casein Blocker (Pierce). Phage were harvested from the culture supernatant and suspended in PBS containing 0.5% BSA and 0.05% Tween 20 (PBSBT). Following addition of the phage library and phage selection for 2 h, microtiter wells were washed extensively with PBS containing 0.05% Tween 20 (PBST) to remove unbound phage and bound phage were eluted by incubating the wells with 100 mM HCl for 30 min. Selection stringency may be increased during successive rounds of selection by increasing the number of washes with PBST or by incubating with soluble huCD79becd for increasing time periods prior to elution.

[2] = biological target: T1, extracellular domain of human CD79b …; assay: Biacore (SPR), IgG
Procedure: Binding of Fab and IgG variants of MA79b, the MA79b-grafted “humanized” antibody or MA79b-grafted “humanized” antibody variants to immobilized huCD79becd or huCD79b-Fc or the 16 amino acid peptide containing the epitope for MA79b was measured by surface plasma resonance. Affinity determinations were performed by surface plasmon resonance using a BIAcore™-2000. The antigen, huCD79becd or huCD79b-Fc was immobilized (approximately 50-200 RU) in 10 mM sodium acetate pH 4.8 on a CM5 sensor chip. Due to a large avidity effect, affinity measurements were sensitive to the amount of huCD79becd immobilized. For this reason, affinities, determined for samples run on different days, were normalized to MA79b that was run along side as a standard. In experiments that measured binding to the 16 amino acid peptide containing the epitope for MA79b ([…]) (SEQ ID NO: 16), the biotinylated peptide was captured (approximately 20 RU) on a streptavidin coated sensor chip. Purified MA79b-grafted “humanized” antibody variant (as Fab or IgG) (a 2-fold serial dilution of 0.5 to 1000 nM in PBST) was injected at a flow rate of 30 μL/min. Each sample was analyzed with 4-minute association and 10-minute disassociation. After each injection the chip was regenerated using 10 mM Glycine pH 1.7. […]

human CD79b [3] = biological target: T2, human CD79b (human, UniProt P40259 29-229); assay: FACS on BJAB-luciferase cells
T2 construct: endogenous CD79b on B-cell lines (BJAB, BJAB-luciferase, DoHH-2); also called PRO36249; CD79b expressed on the surface of BJAB-luciferase cells
T2 sequence: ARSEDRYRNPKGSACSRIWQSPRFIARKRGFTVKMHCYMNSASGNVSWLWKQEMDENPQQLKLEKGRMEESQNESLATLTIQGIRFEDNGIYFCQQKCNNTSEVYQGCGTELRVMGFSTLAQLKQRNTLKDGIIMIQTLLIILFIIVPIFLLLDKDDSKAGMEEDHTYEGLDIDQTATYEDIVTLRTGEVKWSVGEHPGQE
Procedure: The binding affinity of thio huMA79b.v18, thio huMA79b.v28 drug conjugates and thio MA79b drug conjugates to CD79b expressed on BJAB-luciferase cells was determined by FACS analysis. Further, the binding affinity of thio anti-cynoCD79b(ch10D10) drug conjugates to CD79b expressed on BJAB cells expressing cynoCD79b was determined by FACS analysis.
Briefly, approximately 1×10⁶ cells in 100 μl were contacted with varying amounts (1.0 μg, 01. μg or 0.01 μg of Ab per million cells of BJAB-luciferase cells or BJAB cells expressing cynoCD79b (for anti-cynoCD79b thioMAbs)) of one of the following anti-CD79b thioMAb drug conjugates or naked (unconjugated Ab as a control): (1) thio MA79b-LC(V205C)-MC-MMAF or (2) thio MA79b-HC(A118C)-MC-MMAF (FIGS. 29A-B, respectively); (3) thio huMA79b.v18-HC(A118C)-MC-MMAF, (4) thio huMA79b.v18-HC(A118C)-MC-vcPAB-MMAE or (5) thio huMA79b.v18-HC(A118C)-BMPEO-DM1 (FIGS. 30B-D, respectively); (6) thio huMA79b.v28-HC(A118C)-MCvcPAB-MMAE, (7) thio huMA79b.v28-HC(A118C)-BMPEO-DM1, or (8) thio huMA79b.v28-HC(A118C)-MC-MMAF (see FIGS. 31B-31D, respectively); or (9) thio anti-cynoCDb79(ch10D10)-HC(A118C)-MCvcPAB-MMAE, (10) thio anti-cynoCD79b(ch10D10)-HC(A118C)-BMPEO-DM1 or (11) thio anti-cynoCD79b(ch10D10)-HC(A118C)-MC-MMAF (see FIGS. 32B-32D, respectively). PE conjugated mouse anti-human Ig was used as the secondary detecting antibody (BD Cat#555787).

human CD79b [4] = biological target: T2, human CD79b; assay: Scatchard analysis on BJAB cells stably expressing cynomolgus CD79b and endogenous human CD79b

B1: huMA79b graft variant with HVR-L1 of SEQ ID NO: 17 (Fab, name in Kabat numbering, V domains shown)
VH: EVQLVESGGGLVQPGGSLRLSCAASGYTFSSYWIEWVRQAPGKGLEWVGEILPGGGDTNYNEIFKGRFTISADTSKNTAYLQMNSLRAEDTAVYYCTRRVPVYFDYWGQGTLVTVSS
VL: DIQMTQSPSSLSASVGDRVTITCKASKSVDYDGDSFLNWYQQKPGKAPKLLIYAASNLESGVPSRFSGSGSGTDFTLTISSLQPEDFATYYCQQSNEDPLTFGQGTKVEIKR
notes: Fab on phage; also called SPL-2 mutation
binding result [1]: binds

B2: huMA79b graft variant with HVR-H1 of SEQ ID NO: 57 (huMA79b H1-6) (Fab, V domains shown)
VH: B1 VH with T28P, S30T, S31R, E35N
VL: DIQMTQSPSSLSASVGDRVTITCKASQSVDYDGDSFLNWYQQKPGKAPKLLIYAASNLESGVPSRFSGSGSGTDFTLTISSLQPEDFATYYCQQSNEDPLTFGQGTKVEIK
notes: Fab on phage; also called H1-6 mutation
binding result [1]: binds

B3: huMA79b graft variant with HVR-L3 of SEQ ID NO: 21 (Fab, name in Kabat numbering, V domains shown)
VH: B1 VH
VL: B1 VL with K27Q, E97K
notes: Fab on phage
binding result [1]: binds

B4: huMA79b graft variant with HVR-L2 of SEQ ID NO: 29 (Fab, name in Kabat numbering, V domains shown)
VH: B1 VH
VL: B1 VL with K27Q, S56G, N57I, E59A, S60R
notes: Fab on phage
binding result [1]: binds

B5: huMA79b graft variant with HVR-L2 of SEQ ID NO: 25 (Fab, name in Kabat numbering, V domains shown)
VH: B1 VH
VL: B1 VL with K27Q, S56R, N57K, E59K, S60R
notes: Fab on phage
binding result [1]: binds

B6: huMA79b graft variant with HVR-L2 of SEQ ID NO: 28 (Fab, name in Kabat numbering, V domains shown)
VH: B1 VH
VL: B1 VL with K27Q, S56R, N57K, E59A
notes: Fab on phage
binding result [1]: binds

B7: huMA79b graft variant with HVR-L2 of SEQ ID NO: 34 (Fab, name in Kabat numbering, V domains shown)
VH: B1 VH
VL: B1 VL with K27Q, A55G, N57K, E59L, S60R
notes: Fab on phage
binding result [1]: binds

B8: huMA79b graft variant with HVR-L2 of SEQ ID NO: 35 (Fab, name in Kabat numbering, V domains shown)
VH: B1 VH
VL: B1 VL with K27Q, L58R, E59K
notes: Fab on phage
binding result [1]: binds

B9: huMA79b graft variant with HVR-L3 of SEQ ID NO: 20 (Fab, name in Kabat numbering, V domains shown)
VH: B1 VH
VL: B1 VL with K27Q, E97S
notes: Fab on phage; also called SPL-5 mutation
binding result [1]: binds

B10: huMA79b graft variant with HVR-L2 of SEQ ID NO: 30 (Fab, name in Kabat numbering, V domains shown)
VH: B1 VH
VL: B1 VL with K27Q, S56R, N57K, E59R
notes: Fab on phage
binding result [1]: binds

B11: huMA79b graft variant with HVR-L2 of SEQ ID NO: 27 (Fab, name in Kabat numbering, V domains shown)
VH: B1 VH
VL: B1 VL with K27Q, S56R, N57K, E59K
notes: Fab on phage
binding result [1]: binds

B12: huMA79b graft variant with HVR-L2 of SEQ ID NO: 19 (Fab, name in Kabat numbering, V domains shown)
VH: B1 VH
VL: B1 VL with K27Q, E59K
notes: Fab on phage
binding result [1]: binds

B13: huMA79b graft variant with HVR-L2 of SEQ ID NO: 36 (Fab, name in Kabat numbering, V domains shown)
VH: B1 VH
VL: B1 VL with K27Q, N57K, E59G
notes: Fab on phage
binding result [1]: binds

B14: huMA79b graft variant with HVR-L2 of SEQ ID NO: 31 (Fab, name in Kabat numbering, V domains shown)
VH: B1 VH
VL: B1 VL with K27Q, S56R, N57K, E59G
notes: Fab on phage; also called L2-38 mutation
binding result [1]: binds

B15: huMA79b graft variant with HVR-L2 of SEQ ID NO: 26 (Fab, name in Kabat numbering, V domains shown)
VH: B1 VH
VL: B1 VL with K27Q, S56R, N57Y, E59K, S60R
notes: Fab on phage; also called L2-29 mutation
binding result [1]: binds

B16: huMA79b graft variant with HVR-L2 of SEQ ID NO: 33 (Fab, name in Kabat numbering, V domains shown)
VH: B1 VH
VL: B1 VL with K27Q, A55S, S56R, N57Y, E59S, S60R
notes: Fab on phage
binding result [1]: binds

B17: huMA79b graft variant with HVR-L2 of SEQ ID NO: 18 (Fab, name in Kabat numbering, V domains shown)
VH: B1 VH
VL: B1 VL with K27Q, L58R
notes: Fab on phage
binding result [1]: binds

B18: huMA79b graft variant with HVR-L2 of SEQ ID NO: 24 (Fab, name in Kabat numbering, V domains shown)
VH: B1 VH
VL: B1 VL with K27Q, S56R, N57K, E59G, S60N
notes: Fab on phage
binding result [1]: binds

B19: huMA79b graft variant with HVR-L2 of SEQ ID NO: 23 (Fab, name in Kabat numbering, V domains shown)
VH: B1 VH
VL: B1 VL with K27Q, N57R
notes: Fab on phage
binding result [1]: binds

B20: huMA79b graft variant with HVR-L2 of SEQ ID NO: 32 (Fab, name in Kabat numbering, V domains shown)
VH: B1 VH
VL: B1 VL with K27Q, S56R, N57H, E59K, S60R
notes: Fab on phage
binding result [1]: binds

B21: MA79b-grafted humanized antibody variant 18 (huMA79b.v18) (antibody, human IgG1, kappa)
light: DIQLTQSPSSLSASVGDRVTITCKASQSVDYDGDSFLNWYQQKPGKAPKLLIYAASNLESGVPSRFSGSGSGTDFTLTISSLQPEDFATYYCQQSNEDPLTFGQGTKVEIKRTVAAPSVFIFPPSDEQLKSGTASVVCLLNNFYPREAKVQWKVDNALQSGNSQESVTEQDSKDSTYSLSSTLTLSKADYEKHKVYACEVTHQGLSSPVTKSFNRGEC
heavy: not shown
notes: IgG
fold improvement in dimeric binding compared to variant 17 [2]: 2 fold

B22: thio huMA79b.v28-HC(A118C)-BMPEO-DM1 (antibody, human IgG1, kappa)
light: B21 light with D32E
heavy: not shown
modifications: BMPEO-DM1 on the engineered Cys at EU position 118 (sequential position 118; Kabat position 114)
notes: TDC
binding result (human CD79b [3]): binds

B23: thio huMA79b.v28-HC(A118C)-MC-MMAF (antibody, human IgG1, kappa)
light: B21 light with D32E
heavy: not shown
modifications: MC-MMAF on the engineered Cys at EU position 118 (sequential position 118; Kabat position 114)
notes: TDC
binding result (human CD79b [3]): binds

B24: thio huMA79b.v28-HC(A118C)-MCvcPAB-MMAE (antibody, human IgG1, kappa)
light: B21 light with D32E
heavy: not shown
modifications: MC-val-cit-PAB-MMAE on the engineered Cys at EU position 118 (sequential position 118; Kabat position 114)
notes: TDC; also called thio huMA79b.v28-HC(A118C)-MC-val-cit-PAB-MMAE
binding result (human CD79b [3]): binds

B25: thio huMA79b.v18-HC(A118C)-MCvcPAB-MMAE (antibody, human IgG1, kappa)
light: B21 light
heavy: not shown
modifications: MC-val-cit-PAB-MMAE on the engineered Cys at EU position 118 (sequential position 118; Kabat position 114)
notes: TDC
binding result (human CD79b [3]): binds

B26: MA79b-grafted humanized antibody variant 28 (huMA79b.v28) (antibody, human IgG1, kappa)
light: B21 light with D32E
heavy: not shown
notes: IgG
Kd (human CD79b [4]): 0.44 nM

B27: thio huMA79b.v18-HC(A118C)-BMPEO-DM1 (antibody, human IgG1, kappa)
light: B21 light
heavy: not shown
modifications: BMPEO-DM1 on the engineered Cys at EU position 118 (sequential position 118; Kabat position 114)
notes: TDC; also called huMA79b.v18-HC(A118C) thioMAb-BMPEO-DM1
binding result (human CD79b [3]): binds

B28: thio huMA79b.v18-HC(A118C)-MC-MMAF (antibody, human IgG1, kappa)
light: B21 light
heavy: not shown
modifications: MC-MMAF on the engineered Cys at EU position 118 (sequential position 118; Kabat position 114)
notes: TDC
binding result (human CD79b [3]): binds
